In patent publication US20210046160A1 (Synthorx, Inc., priority 2019, published 2021):

Key:
Assay type in all cases: cell-based
[1] = test system: NK cells; assay: pSTAT5 concentration-response in human LRS-derived PBMC samples (flow cytometry): NK cells; settings: Table 4, 45 min
Method: (§1) These studies were performed at PrimityBio LLC (Fremont, Calif.). […] Staining panel for flow cytometry study of LRS-derived PBMC samples include markers for Effector T cells (Teff: CD3+, CD4+, CD8+, CD127+), NK cells (CD3-, CD16+), and Regulatory T cells (Treg: CD3+, CD4+, CD8-, IL-2Rα+, CD127-1).
(§2) The EC50 values (pg/mL) was calculated from dose response curves generated from MFI plots. […]

[2] = test system: CD8+ T cells; assay: pSTAT5 concentration-response in human LRS-derived PBMC samples (flow cytometry): CD8+ T cells; settings: Table 4, 45 min
Method: as §1, §2

[3] = test system: CTLL-2; assay: CTLL-2 proliferation; settings: Table 4
[4] = test system: Treg cells; assay: pSTAT5 concentration-response in human LRS-derived PBMC samples (flow cytometry): Treg cells; settings: Table 4; for EC50 for pSTAT5 signaling, Treg Cells: human LRS samples, 45 min; for CD8/Treg ratio: ratio of pSTAT5 EC50 values
Method: as §1
The EC50 values (pg/mL) was calculated from dose response curves generated from MFI plots.
These studies were performed at PrimityBio LLC (Fremont, Calif.). […] Staining panel for flow cytometry study of LRS-derived PBMC samples include markers CD4, CD4+ memory central, CD4+ memory effect, CD4+ memory T cells, CD4+ Naive T cells, CD4+ T cells, CD8, CD8+ memory central, CD8+ memory effect, CD8+ memory T cells, CD8+ Naive T cells, CD8+ T cells, NK cells, and T regulatory cells.
Conjugates of Table 12 were synthesized by modification of SEQ NO. 1. These studies were performed at PrimityBio LLC (Fremont, Calif.).
The EC50 values (pg/ml) were calculated from dose response curves generated from the MFI plots.

[5] = test system: Human whole blood; assay: Whole blood cytokine release assay (MSD U-plex: IFN-γ, IL-4, IL-5, IL-6, IL-8, TNF-α); set-up: unit not given here; settings: for IFN-γ level, D1 / IL-6 level, D1 / IL-8 level, D1 / TNF-α level, D1 / IFN-γ level, D2 / IL-6 level, D2 / IL-8 level, D2 / TNF-α level, D2 / IFN-γ level, D3 / IL-6 level, D3 / IL-8 level, D3 / TNF-α level, D3 / IFN-γ level, D4 / IL-6 level, D4 / IL-8 level, D4 / TNF-α level, D4 / IFN-γ level, D5 / IL-6 level, D5 / IL-8 level, D5 / TNF-α level, D5 / IFN-γ level, D6 / IL-6 level, D6 / IL-8 level, D6 / TNF-α level, D6: 24 h, control conditions, conc. ug/ml: IgG4 iso 50, mouse IgG1,κ 100, PEM 90, NIVO 127, coated anti-CD3 100; for IL-4 level / IL-5 level: 90 ug/ml
Method: Cytokines released from the whole blood after treatment into the supernatant were measured using the Meso Scale Discovery (MSD) U-plex kit for six analytes (IFN-γ, IL-4, IL-5, IL-6, IL-8, TNF-α).
Blood in heparin tubes from 6 healthy donors were obtained from The Scripps Research Institute (TSRI; San Diego, Calif.) blood donor service. Samples were tested on the day of the collection; donors 1-3 on one day and donors 4-6 on another day.
A volume of 180 μL of prediluted whole blood was seeded onto a 96-well tissue culture plate. Then, 20 μL of 10× final test concentration of compounds was added to the assay plate. […] In addition, positive and negative controls were included to show the detection and specification of the assay: 100 μg/mL pre-coated Ultra LEAF mouse anti-human CD3 were used as the positive controls for the assay. […] […] No treatment also served as a negative control for the assay.
After adding the compound(s) to the well, the blood was incubated at 37° C. After centrifugation of the samples, supernatant was collected 24 h post treatment and stored at −80° C. before analysis. The human cytokines ([…], TNF-α, IL-8, IL-6, IL-5, IL-4) released from the assay were quantified with the MSD U-plex kit. The detection limit of each plate is reported from the MSD software, Discovery workbench. Each plate has a slightly different detection limit.

[6] = test system: CD4+ T cells co-cultured with allogeneic monoDC; assay: Allogeneic human mixed lymphocyte reaction (MLR) assay, IFN-γ secretion; settings: single agents, 5 days of co-culture
From the text: The allogeneic human mixed lymphocyte reaction (MLR) assay was used to evaluate the ability of Compound B (IL-2_P65[AzK_L1_PEG30kD]-1) to enhance TCR activation as a single agent and in combination with a checkpoint inhibitor (nivolumab or pembrolizumab), as a model for cytolytic response to tumor cells presenting specific antigens or neoantigens.
Peripheral blood mononuclear cells (PBMCs) from two normal, healthy donors were used for each assay run. MonoDCs were generated by culturing monocytes isolated from PBMCs using a negative monocyte selection kit (Stemcell) in vitro for 7 days, involving addition of 1,500 IU/mL of IL-4 and 1,500 IU/mL of GM-CSF. The culture medium was replaced on Days 3 and 5. MonoDCs were collected on Day 7. On that day, CD4+ T cells were isolated from a different donor with a negative selection kit (Stemcell). […] Each run was set up in 3 replicates for each treatment condition. After 5 days of co-culture, IFN-γ secretion in culture supernatants was analyzed employing an enzyme-linked immunosorbent assay (ELISA) kit (Abcam; catalog #Ab46025). Clinical grade nivolumab was used to generate the data shown in FIG. 13, and research grade nivolumab (Selleckchem) was used to generate the data shown in FIG. 14. […] Data shown in FIGS. 12, 13, and 14 represent the mean of 3 replicates standard error of the mean from one donor pair.

## F42_30 kD: IL-2 (SEQ ID NO: 4) PEGylated with 30 kD PEG via AzK at F42; presumably SEQ ID NO: 27
[1]
  EC50 for pSTAT5 signaling, NK Cells: 16397 pg/mL
[2]
  EC50 for pSTAT5 signaling, CD8+ T Cells: 107944 pg/mL
[3]
  EC50, CTLL-2 proliferation: 123,936 pg/mL
[4]
  EC50 for pSTAT5 signaling, Treg Cells: 36856 pg/mL
  CD8/Treg ratio: 2.9

## K43_30 kD: IL-2 (SEQ ID NO: 4) PEGylated with 30 kD PEG via AzK at K43; presumably SEQ ID NO: 28
[1]
  EC50 for pSTAT5 signaling, NK Cells: 9004 pg/mL
[2]
  EC50 for pSTAT5 signaling, CD8+ T Cells: 50504 pg/mL
[4]
  EC50 for pSTAT5 signaling, Treg Cells: 4797 pg/mL
  CD8/Treg ratio: 10.5

## nivolumab [reference compound]
[5]; donor D1
  IFN-γ level, D1: 29.77
  IL-6 level, D1: 1.28
  IL-8 level, D1: 20.59
  TNF-α level, D1: 2.35
[5]; donor D2
  IFN-γ level, D2: 9.34
  IL-6 level, D2: 0.48
  IL-8 level, D2: 7.68
  TNF-α level, D2: 0.44
[5]; donor D3
  IFN-γ level, D3: 6.61
  IL-6 level, D3: 1.09
  IL-8 level, D3: 7.95
  TNF-α level, D3: 1.33
[5]; donor D4
  IFN-γ level, D4: 7.56
  IL-6 level, D4: 0.59
  IL-8 level, D4: 22.61
  TNF-α level, D4: 1.21
[5]; donor D5
  IFN-γ level, D5: 256.75
  IL-6 level, D5: 3.29
  IL-8 level, D5: 67.38
  TNF-α level, D5: 4.89
[5]; donor D6
  IFN-γ level, D6: 9.51
  IL-6 level, D6: 0.62
  IL-8 level, D6: 19.68
  TNF-α level, D6: BDL
[6]
  release of IFN-γ: induced the release of IFN-γ in a concentration-dependent manner

## pembrolizumab [reference compound]
[5]; donor D1
  IL-4 level: 0.10
  IL-5 level: 1.03
  IFN-γ level, D1: 52.78
  IL-6 level, D1: 1.09
  IL-8 level, D1: 22.01
  TNF-α level, D1: 2.33
[5]; donor D2
  IL-4 level: 0.03
  IL-5 level: 0.72
  IFN-γ level, D2: 9.62
  IL-6 level, D2: 0.39
  IL-8 level, D2: 8.48
  TNF-α level, D2: 0.68
[5]; donor D3
  IL-4 level: 0.03
  IL-5 level: 0.79
  IFN-γ level, D3: 8.80
  IL-6 level, D3: 0.92
  IL-8 level, D3: 11.36
  TNF-α level, D3: 1.67
[5]; donor D4
  IL-4 level: 0.09
  IL-5 level: BDL
  IFN-γ level, D4: 11.71
  IL-6 level, D4: 0.65
  IL-8 level, D4: 23.29
  TNF-α level, D4: 0.97
[5]; donor D5
  IL-4 level: BDL
  IL-5 level: BDL
  IFN-γ level, D5: 301.71
  IL-6 level, D5: 8.95
  IL-8 level, D5: 95.5
  TNF-α level, D5: 5.88
[5]; donor D6
  IL-4 level: BDL
  IL-5 level: BDL
  IFN-γ level, D6: 10.08
  IL-6 level, D6: 1.06
  IL-8 level, D6: 28.32
  TNF-α level, D6: 1.43
[6]
  release of IFN-γ: induced the release of IFN-γ in a concentration-dependent manner
